EP4682166A1 (Guangzhou Enmai Biotechnology Co., Ltd, dated 2026)

Assays:
[1] = molecular target: T1, natural NMI in joint fluid of an arthritic patient (human) (UniProt Q13287); test: sandwich ELISA; detection 94C4-1-biotin 0.5µg/mL; joint fluid stock solution
T1 sequence (looked up): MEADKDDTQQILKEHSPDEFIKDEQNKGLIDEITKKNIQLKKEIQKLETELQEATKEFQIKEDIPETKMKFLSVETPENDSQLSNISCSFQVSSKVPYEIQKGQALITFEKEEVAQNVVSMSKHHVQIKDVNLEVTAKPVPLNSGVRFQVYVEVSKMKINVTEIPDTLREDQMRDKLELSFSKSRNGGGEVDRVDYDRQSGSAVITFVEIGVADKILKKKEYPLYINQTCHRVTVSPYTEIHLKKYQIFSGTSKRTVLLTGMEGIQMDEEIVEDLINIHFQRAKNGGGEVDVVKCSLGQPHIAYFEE

[2] = molecular target: T2, human NMI (N-myc Interacting protein), recombinant protein (human, UniProt Q13287 1-307, limits assumed); test: ELISA, binding to hNMI
T2 construct: Gene ID: 9111; also called hNMI; antigen
T2 sequence (looked up): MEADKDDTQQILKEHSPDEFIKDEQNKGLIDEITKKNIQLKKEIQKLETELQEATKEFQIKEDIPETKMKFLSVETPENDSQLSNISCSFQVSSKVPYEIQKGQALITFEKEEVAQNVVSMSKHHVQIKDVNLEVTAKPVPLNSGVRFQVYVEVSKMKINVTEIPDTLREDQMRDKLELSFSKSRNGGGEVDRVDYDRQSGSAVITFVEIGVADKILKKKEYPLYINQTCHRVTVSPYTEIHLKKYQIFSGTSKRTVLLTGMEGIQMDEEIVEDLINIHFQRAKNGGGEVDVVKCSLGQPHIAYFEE

[3] = molecular target: T3, NMI-flag overexpressed protein (293T cells transfected with the hNMI-flag plasmid) (human) (UniProt Q13287); test: sandwich ELISA; detection 94C4-1-biotin; cell lysates of NMI-flag 293T, replicate 1
T3 sequence (looked up): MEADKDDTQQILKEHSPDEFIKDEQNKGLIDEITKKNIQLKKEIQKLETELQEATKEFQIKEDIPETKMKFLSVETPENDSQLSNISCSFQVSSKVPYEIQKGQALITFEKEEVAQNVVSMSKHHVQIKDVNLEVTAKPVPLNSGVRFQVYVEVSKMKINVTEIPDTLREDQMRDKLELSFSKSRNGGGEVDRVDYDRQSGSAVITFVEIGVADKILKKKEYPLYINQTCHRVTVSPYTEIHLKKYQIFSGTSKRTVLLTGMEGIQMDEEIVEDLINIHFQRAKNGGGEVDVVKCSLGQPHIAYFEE

[4] = molecular target: T3, NMI-flag overexpressed protein (293T cells transfected with the hNMI-flag plasmid) (human); test: sandwich ELISA; detection 94C4-1-biotin; cell supernatant of NMI-flag 293T, replicate 1
[5] = molecular target: T3, NMI-flag overexpressed protein (293T cells transfected with the hNMI-flag plasmid) (human); test: sandwich ELISA; detection 94C4-1-biotin; cell supernatant of NMI-flag 293T, replicate 2
[6] = molecular target: T1, natural NMI in joint fluid of an arthritic patient (human); test: sandwich ELISA; detection 94C4-1-biotin 0.5µg/mL; joint fluid diluted 1/2
[7] = molecular target: T4, human NMI (N-myc Interacting protein) (human) (UniProt Q13287); test: magnetic-bead chemiluminescent sandwich; capture 98G10 beads, detection acridinium-B-8 (2.0 mg B-8 labelled); hNMI 400 pg/mL
T4 sequence (looked up): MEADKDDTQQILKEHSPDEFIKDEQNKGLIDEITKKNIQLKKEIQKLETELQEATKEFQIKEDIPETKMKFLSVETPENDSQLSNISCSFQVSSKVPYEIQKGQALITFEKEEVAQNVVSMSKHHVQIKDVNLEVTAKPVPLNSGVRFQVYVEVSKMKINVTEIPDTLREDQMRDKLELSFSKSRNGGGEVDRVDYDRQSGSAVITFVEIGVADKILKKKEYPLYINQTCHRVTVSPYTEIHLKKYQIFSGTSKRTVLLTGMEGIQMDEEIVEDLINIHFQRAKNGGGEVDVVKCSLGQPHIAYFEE

[8] = molecular target: T4, human NMI (N-myc Interacting protein) (human); test: magnetic-bead chemiluminescent sandwich; capture 98G10 beads, detection acridinium-B-8 (1.0 mg B-8 labelled); hNMI 100 pg/mL
[9] = molecular target: T4, human NMI (N-myc Interacting protein) (human); test: magnetic-bead chemiluminescent sandwich; capture 98G10 beads (1.0 mg 98G10), detection acridinium-B-8; hNMI 100 pg/ml
[10] = molecular target: T4, human NMI (N-myc Interacting protein) (human); test: magnetic-bead chemiluminescent sandwich; capture 98G10 beads (0.5 mg 98G10), detection acridinium-B-8; hNMI 400 pg/ml
[11] = molecular target: T4, human NMI (N-myc Interacting protein) (human); test: magnetic-bead chemiluminescent sandwich, kit of Example 8-1; capture 98G10 beads, detection acridinium-B-8; series 1, hNMI 14000 pg/mL
[12] = molecular target: T4, human NMI (N-myc Interacting protein) (human); test: magnetic-bead chemiluminescent sandwich, kit of Example 8-1; capture 98G10 beads, detection acridinium-B-8; series 3, hNMI 10000 pg/mL
[13] = molecular target: T4, human NMI (N-myc Interacting protein) (human); test: magnetic-bead chemiluminescent sandwich, kit of Example 8-1; capture 98G10 beads, detection acridinium-B-8; series 3, hNMI 4000 pg/mL
[14] = molecular target: T4, human NMI (N-myc Interacting protein) (human); test: magnetic-bead chemiluminescent sandwich; capture 98G10 beads (1.0 mg 98G10), detection acridinium-B-8; hNMI 2000 pg/ml
[15] = molecular target: T4, human NMI (N-myc Interacting protein) (human); test: magnetic-bead chemiluminescent sandwich, kit of Example 8-1; capture 98G10 beads, detection acridinium-B-8; series 2, hNMI 150 pg/mL
[16] = molecular target: T4, human NMI (N-myc Interacting protein) (human); test: magnetic-bead chemiluminescent sandwich, kit of Example 8-1; capture 98G10 beads, detection acridinium-B-8; series 3, hNMI 200 pg/mL
[17] = molecular target: T4, human NMI (N-myc Interacting protein) (human); test: magnetic-bead chemiluminescent sandwich, kit of Example 8-1; capture 98G10 beads, detection acridinium-B-8; series 2, hNMI 50 pg/mL
[18] = molecular target: T4, human NMI (N-myc Interacting protein) (human); test: magnetic-bead chemiluminescent sandwich, kit of Example 8-1; capture 98G10 beads, detection acridinium-B-8; series 2, hNMI 900 pg/mL
[19] = molecular target: T4, human NMI (N-myc Interacting protein) (human); test: magnetic-bead chemiluminescent sandwich; capture 98G10 beads, detection acridinium-B-8 (2.0 mg B-8 labelled); hNMI 50 pg/mL
[20] = molecular target: T4, human NMI (N-myc Interacting protein) (human); test: magnetic-bead chemiluminescent sandwich, kit of Example 8-1; capture 98G10 beads, detection acridinium-B-8; series 1, hNMI 50 pg/mL
[21] = molecular target: T4, human NMI (N-myc Interacting protein) (human); test: magnetic-bead chemiluminescent sandwich, kit of Example 8-1; capture 98G10 beads, detection acridinium-B-8; series 1, hNMI 16000 pg/mL
[22] = molecular target: T4, human NMI (N-myc Interacting protein) (human); test: magnetic-bead chemiluminescent sandwich; capture 98G10 beads (1.0 mg 98G10), detection acridinium-B-8; hNMI 50 pg/ml
[23] = molecular target: T4, human NMI (N-myc Interacting protein) (human); test: magnetic-bead chemiluminescent sandwich, kit of Example 8-1; capture 98G10 beads, detection acridinium-B-8; series 1, hNMI 1000 pg/mL
[24] = molecular target: T4, human NMI (N-myc Interacting protein) (human); test: magnetic-bead chemiluminescent sandwich, kit of Example 8-1; capture 98G10 beads, detection acridinium-B-8; series 3, hNMI 1000 pg/mL
[25] = molecular target: T4, human NMI (N-myc Interacting protein) (human); test: magnetic-bead chemiluminescent sandwich; capture 98G10 beads, detection acridinium-B-8 (1.0 mg B-8 labelled); hNMI 400 pg/mL

B1: monoclonal antibody B-8 (antibody, V domains shown)
VH: QSLEESGGDLVKPGASLTLTCTASGFSFSSSYYMCWVRQAPGKGLEWIACIYAGSSGSTYYASWAKGRFTISKTSSTTVTLQMTSLTAADTATYFCAREYSYDDYGDFWGFNLWGPGTLVTVSS
VL: ALVMTQTPSSVSAAVGGTVTINCQASQNIYTNLAWYQQKPGQPPKLLIYGASNLESGVPSRFKGSGSGTEYTLTISDLECDDAATYYCQSSLYSRIADRANAFGGGTEVVVK
notes: Rabbit monoclonal antibody; also called B8-1
Q: Which results are given for B1?
A: OD450 [1]: 0.221 OD450; EC50 [2]: 0.309 nM; OD450 [3]: 3.03 OD450; OD450 [4]: 0.897 OD450; OD450 [5]: 0.95 OD450; OD450 [6]: 0.128 OD450

B2: acridinium ester-labeled monoclonal antibody B-8 (antibody, V domains shown)
VH: QSLEESGGDLVKPGASLTLTCTASGFSFSSSYYMCWVRQAPGKGLEWIACIYAGSSGSTYYASWAKGRFTISKTSSTTVTLQMTSLTAADTATYFCAREYSYDDYGDFWGFNLWGPGTLVTVSS
VL: ALVMTQTPSSVSAAVGGTVTINCQASQNIYTNLAWYQQKPGQPPKLLIYGASNLESGVPSRFKGSGSGTEYTLTISDLECDDAATYYCQSSLYSRIADRANAFGGGTEVVVK
modifications: acridinium ester label on the antibody, site not stated
Q: Which Signal value [7] does the source give for B2 here?
A: The Signal value was 44600.

Q: And the Signal value [8]?
A: The Signal value was 9490.

Q: And the Signal value [9]?
A: The Signal value was 20400.

Q: And the Signal value [10]?
A: The Signal value was 39900.

Q: And the Signal value [11]?
A: The Signal value was 1.05e+06.

Q: And the Signal value [12]?
A: Its Signal value is 1.48e+06.

Q: And the Signal value [13]?
A: The Signal value was 572000.

Q: What about the Signal value [14] of the same binder?
A: Its Signal value is 397000.

Q: And the Signal value [15]?
A: The Signal value was 15500.

Q: What about the Signal value [16] of the same binder?
A: Its Signal value is 25700.

Q: What about the Signal value [17] of the same binder?
A: The Signal value was 6180.

Q: What about the Signal value [18] of the same binder?
A: Its Signal value is 98500.

Q: And the Signal value [19]?
A: The Signal value was 6220.

Q: And the Signal value [20]?
A: The Signal value was 2010.

Q: What about the Signal value [21] of the same binder?
A: The Signal value was 1.21e+06.

Q: And the Signal value [22]?
A: The Signal value was 11100.

Q: And the Signal value [23]?
A: The Signal value was 57600.

Q: And the Signal value [24]?
A: Its Signal value is 131000.

Q: What about the Signal value [25] of the same binder?
A: Its Signal value is 39900.
